This note sets out measurements from the supplement of paper PMC11246515.

± gives the standard deviation of the averaged measurements.

The data set can be described thus: total protein half-life in vivo (active degradation + dilution); higher = more stable protein.
The mark [1] stands for this setting: wild type E. coli NCM3722, growth: C-lim chemostat, doubling time 3 h.
[2] abbreviates: wild type E. coli NCM3722, growth: C-lim chemostat, doubling time 6 h.
[3] abbreviates: wild type E. coli NCM3722, growth: C-lim chemostat, doubling time 12 h.
Setting [4] is: wild type E. coli NCM3722, growth: P-lim chemostat, doubling time 12 h.
[5] abbreviates: E. coli NCM3722 delta-clpP delta-lon delta-hslV, growth: N-lim chemostat, doubling time 6 h.
The mark [6] stands for this setting: E. coli NCM3722 delta-lon, growth: N-lim chemostat, doubling time 6 h.
Setting [7] is: wild type E. coli NCM3722, growth: P-lim chemostat, doubling time 6 h.
Where [8] appears, read: E. coli NCM3722 delta-clpP, growth: N-lim chemostat, doubling time 6 h.
[9] abbreviates: E. coli NCM3722 delta-hslV, growth: N-lim chemostat, doubling time 6 h.
The mark [10] stands for this setting: E. coli NCM3722 delta-smpB, growth: N-lim chemostat, doubling time 6 h.
Where [11] appears, read: wild type E. coli NCM3722, growth: N-lim chemostat, doubling time 6 h.
Where [12] appears, read: wild type E. coli NCM3722, growth: N-lim chemostat, doubling time 12 h.

Take “MSNLAAMLRLPANLKSTQWQILAGPILILLILSMMVLPLPAFILDLLFTFNIALSIMVLLVAMFTQRTLEFAAFPTILLFTTLLRLALNVASTRIILMEGHTGAAAAGKVVEAFGHFLVGGNFAIGIVVFVILVIINFMVITKGAGRIAEVGARFVLDGMPGKQMAIDADLNAGLIGEDEAKKRRSEVTQEADFYGSMDGASKFVRGDAIAGILIMVINIVGGLLVGVLQHGMSMGHAAESYTLLTIGDGLVAQIPALVISTAAGVIVTRVSTDQDVGEQMVNQLFSNPSVMLLSAAVLGLLGLVPGMPNLVFLLFTAGLLGLAWWIRGREQKAPAEPKPVKMAENNTVVEATWNDVQLEDSLGMEVGYRLIPMVDFQQDGELLGRIRSIRKKFAQEMGFLPPVVHIRDNMDLQPARYRILMKGVEIGSGDAYPGRWLAINPGTAAGTLPGEATVDPAFGLNAIWIESALKEQAQIQGYTVVEASTVVATHLNHLISQHAAELFGRQEAQQLLDRVAQEMPKLTEDLVPGVVTLTTLHKVLQNLLDEKVPIRDMRTILETLAEHAPIQSDPHELTAVVRVALGRAITQQWFPGKDEVHVIGLDTPLERLLLQALQGGGGLEPGLADRLLAQTQEALSRQEMLGAPPVLLVNHALRPLLSRFLRRSLPQLVVLSNLELSDNRHIRMTATIGGK”: the “total protein half-life in vivo” value under setting [1] amounted to 2.13 ± 0.33 h, the “total protein half-life in vivo” value under setting [2] came to 3.87 h, the “total protein half-life in vivo” value under setting [3] worked out at 8.63 h and the “total protein half-life in vivo” value under setting [4] was 14.5 h.
In the case of “MREAFICDGIRTPIGRYGGALSSVRADDLAAIPLRELLVRNPRLDAECIDDVILGCANQAGEDNRNVARMATLLAGLPQSVSGTTINRLCGSGLDALGFAARAIKAGDGDLLIAGGVESMSRAPFVMGKAASAFSRQAEMFDTTIGWRFVNPLMAQQFGTDSMPETAENVAELLKISREDQDSFALRSQQRTAKAQSSGILAEEIVPVVLKNKKGVVTEIQHDEHLRPETTLEQLRGLKAPFRANGVITAGNASGVNDGAAALIIASEQMAAAQGLTPRARIVAMATAGVEPRLMGLGPVPATRRVLERAGLSIHDMDVIELNEAFAAQALGVLRELGLPDDAPHVNPNGGAIALGHPLGMSGARLALAASHELHRRNGRYALCTMCIGVGQGIAMILERV [P0C7L2]”, the “total protein half-life in vivo” value under setting [5] was 3.42 h; the “total protein half-life in vivo” value under setting [6] was 2.17 h; the “total protein half-life in vivo” value under setting [1] came out at 2.77 ± 0.17 h; the “total protein half-life in vivo” value under setting [2] worked out at 3.37 ± 0.079 h; the “total protein half-life in vivo” value under setting [3] was determined as 4.76 ± 0.58 h; the “total protein half-life in vivo” value under setting [7] stood at 4.99 ± 1.1 h. The “total protein half-life in vivo” value under setting [4] worked out at 8.63 ± 0.14 h.
Consider “MIPDVSQALAWLEKHPQALKGIQRGLERETLRVNADGTLATTGHPEALGSALTHKWITTDFAEALLEFITPVDGDIEHMLTFMRDLHRYTARNMGDERMWPLSMPCYIAEGQDIELAQYGTSNTGRFKTLYREGLKNRYGALMQTISGVHYNFSLPMAFWQAKCGDISGADAKEKISAGYFRVIRNYYRFGWVIPYLFGASPAICSSFLQGKPTSLPFEKTECGMYYLPYATSLRLSDLGYTNKSQSNLGITFNDLYEYVAGLKQAIKTPSEEYAKIGIEKDGKRLQINSNVLQIENELYAPIRPKRVTRSGESPSDALLRGGIEYIEVRSLDINPFSPIGVDEQQVRFLDLFMVWCALADAPEMSSSELACTRVNWNRVILEGRKPGLTLGIGCETAQFPLPQVGKDLFRDLKRVAQTLDSINGGEAYQKVCDELVACFDNPDLTFSARILRSMIDTGIGGTGKAFAEAYRNLLREEPLEILREEDFVAEREASERRQQEMEAADTEPFAVWLEKHA [P0A6W9]”, for which the “total protein half-life in vivo” value under setting [5] worked out at 4.67 ± 0.094 h; the “total protein half-life in vivo” value under setting [8] came out at 4.57 ± 0.48 h; the “total protein half-life in vivo” value under setting [9] amounted to 4.96 ± 0.18 h; the “total protein half-life in vivo” value under setting [6] is 5.15 ± 0.6 h; the “total protein half-life in vivo” value under setting [10] amounted to 4.55 ± 0.18 h; the “total protein half-life in vivo” value under setting [1] was 3.36 ± 0.2 h. In addition, the “total protein half-life in vivo” value reads like this: under setting [2], 6.04 ± 0.38 h; under setting [3], 9.533 ± 0.031 h; under setting [11], 4.35 ± 0.33 h; under setting [12], 7.2 ± 0.27 h; under setting [7], 6.1209 ± 0.0053 h; under setting [4], 11.4 ± 0.35 h.
For the sequence “MNDYKMTPGERRATWGLGTVFSLRMLGMFMVLPVLTTYGMALQGASEALIGIAIGIYGLTQAVFQIPFGLLSDRIGRKPLIVGGLAVFAAGSVIAALSDSIWGIILGRALQGSGAIAAAVMALLSDLTREQNRTKAMAFIGVSFGITFAIAMVLGPIITHKLGLHALFWMIAILATTGIALTIWVVPNSSTHVLNRESGMVKGSFSKVLAEPRLLKLNFGIMCLHILLMSTFVALPGQLADAGFPAAEHWKVYLATMLIAFGSVVPFIIYAEVKRKMKQVFVFCVGLIVVAEIVLWNAQTQFWQLVVGVQLFFVAFNLMEALLPSLISKESPAGYKGTAMGVYSTSQFLGVAIGGSLGGWINGMFDGQGVFLAGAMLAAVWLTVASTMKEPPYVSSLRIEIPANIAANEALKVRLLETEGIKEVLIAEEEHSAYVKIDSKVTNRFEIEQAIRQA”, the “total protein half-life in vivo” value is, setting by setting: under setting [5], 5.51 h; under setting [8], 5.38 ± 0.66 h; under setting [6], 5.73 ± 0.96 h; under setting [10], 5.16 ± 0.38 h; under setting [1], 3.17 ± 0.88 h; under setting [2], 5.45 ± 0.11 h. Moreover, the “total protein half-life in vivo” value under setting [3] amounted to 11.2 ± 1.9 h; the “total protein half-life in vivo” value under setting [11] was 5.15 ± 0.25 h; the “total protein half-life in vivo” value under setting [12] was 10.1 ± 0.3 h; the “total protein half-life in vivo” value under setting [7] came out at 5.42 ± 0.72 h; the “total protein half-life in vivo” value under setting [4] was 8.82 ± 0.54 h.
Turning to “MDKVLDSALLSSANKRKGILAIGAHPDDIELGCGASLARLAQKGIYIAAVVMTTGNSGTDGIIDRHEESRNALKILGCHQTIHLNFADTRAHLQLNDMISALEDIIKNQIPSDVEIMRVYTMHDADRHQDHLAVYQASMVACRTIPQILGYETPSTWLSFMPQVFESVKEEYFTVKLAALKKHKS”, the “total protein half-life in vivo” value under setting [5] was found to be 5.73 h.
“MTLLNISGLSHHYAHGGFNGKHQHQAVLNNVSLTLKSGETVALLGRSGCGKSTLARLLVGLESPAQGNISWRGEPLAKLNRAQRKAFRRDIQMVFQDSISAVNPRKTVREILREPMRHLLSLKKSEQLARASEMLKAVDLDDSVLDKRPPQLSGGQLQRVCLARALAVEPKLLILDEAVSNLDLVLQAGVIRLLKKLQQQFGTACLFITHDLRLVERFCQRVMVMDNGQIVETQVVGEKLTFSSDAGRVLQNAVLPAFPVRRRTTEKV”: under setting [5], the “total protein half-life in vivo” value is 6.58 h.
Take “MRTISYSEARQNLSATMMKAVEDHAPILITRQNGEACVLMSLEEYNSLEETAYLLRSPANARRLMDSIDSLKSGKGTEKDIIE”: the “total protein half-life in vivo” value runs as follows: under setting [5], 2.74 h; under setting [8], 2 ± 0.78 h; under setting [9], 2.66 ± 0.31 h; under setting [10], 3.15 h; under setting [1], greater than 4 h; under setting [2], 1.57 ± 0.23 h. Moreover, the “total protein half-life in vivo” value was found to be 2.2 ± 1.2 h under setting [3]; 1.8 h under setting [11]; 2.86 ± 0.17 h under setting [12]; 1.67 h under setting [7]; 3.61 ± 0.31 h under setting [4].
